Assay in all cases: co-IP (IP anti-Myc beads, IB anti-HA), band intensity by ImageJ
What all share (conditions): chain shown with the change; NB-ARC-HA co-expressed with NB-ARC-Myc; parent: 1.00

The target of assay [1] is T1, Tm-2^2 NB-ARC (D481V, L233A), Q71BG9.
T1 chain: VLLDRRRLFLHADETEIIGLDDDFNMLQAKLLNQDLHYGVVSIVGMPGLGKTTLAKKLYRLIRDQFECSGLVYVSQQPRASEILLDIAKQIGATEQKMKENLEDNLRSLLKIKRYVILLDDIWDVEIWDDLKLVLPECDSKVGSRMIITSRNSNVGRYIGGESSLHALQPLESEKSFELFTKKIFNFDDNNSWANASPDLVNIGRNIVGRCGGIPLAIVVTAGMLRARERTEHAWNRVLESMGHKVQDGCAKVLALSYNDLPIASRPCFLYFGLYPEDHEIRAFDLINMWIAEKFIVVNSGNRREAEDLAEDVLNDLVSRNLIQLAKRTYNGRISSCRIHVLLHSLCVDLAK

Assay [2] concerns the target T2, Tm-2^2 NB-ARC (D481V, L242A), Q71BG9.
T2 chain: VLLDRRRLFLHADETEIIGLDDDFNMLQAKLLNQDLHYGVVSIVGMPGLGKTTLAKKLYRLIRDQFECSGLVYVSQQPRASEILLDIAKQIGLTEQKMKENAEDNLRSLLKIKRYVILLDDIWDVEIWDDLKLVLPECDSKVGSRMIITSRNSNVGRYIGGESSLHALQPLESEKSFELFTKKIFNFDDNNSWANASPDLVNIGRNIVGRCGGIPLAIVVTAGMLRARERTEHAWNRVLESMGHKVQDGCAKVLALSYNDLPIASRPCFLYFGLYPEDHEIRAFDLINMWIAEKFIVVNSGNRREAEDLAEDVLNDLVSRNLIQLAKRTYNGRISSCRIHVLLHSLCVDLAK

Assay [3] concerns the target T3, Tm-2^2 NB-ARC (D481V, L246A), Q71BG9.
T3 chain: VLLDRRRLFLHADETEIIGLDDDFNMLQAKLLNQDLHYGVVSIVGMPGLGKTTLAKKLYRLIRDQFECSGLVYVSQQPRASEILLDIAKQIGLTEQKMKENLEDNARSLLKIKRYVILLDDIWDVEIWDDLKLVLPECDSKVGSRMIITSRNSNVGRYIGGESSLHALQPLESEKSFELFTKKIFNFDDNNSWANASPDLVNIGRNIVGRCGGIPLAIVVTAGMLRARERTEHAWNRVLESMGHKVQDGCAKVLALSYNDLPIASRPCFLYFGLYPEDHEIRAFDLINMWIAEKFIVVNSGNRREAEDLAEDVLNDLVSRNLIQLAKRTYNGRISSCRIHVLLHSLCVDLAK

The values that follow come from article PMC7205312.

B1: Tm-2^2 NB-ARC (D481V), Q71BG9 L233A; D481V (protein)
chain: VLLDRRRLFLHADETEIIGLDDDFNMLQAKLLNQDLHYGVVSIVGMPGLGKTTLAKKLYRLIRDQFECSGLVYVSQQPRASEILLDIAKQIGATEQKMKENLEDNLRSLLKIKRYVILLDDIWDVEIWDDLKLVLPECDSKVGSRMIITSRNSNVGRYIGGESSLHALQPLESEKSFELFTKKIFNFDDNNSWANASPDLVNIGRNIVGRCGGIPLAIVVTAGMLRARERTEHAWNRVLESMGHKVQDGCAKVLALSYNDLPIASRPCFLYFGLYPEDHEIRAFDLINMWIAEKFIVVNSGNRREAEDLAEDVLNDLVSRNLIQLAKRTYNGRISSCRIHVLLHSLCVDLAK
For B1, the ratio to parent in assay [1] came to 0.64.

B2: Tm-2^2 NB-ARC (D481V), Q71BG9 L242A; D481V (protein)
chain: VLLDRRRLFLHADETEIIGLDDDFNMLQAKLLNQDLHYGVVSIVGMPGLGKTTLAKKLYRLIRDQFECSGLVYVSQQPRASEILLDIAKQIGLTEQKMKENAEDNLRSLLKIKRYVILLDDIWDVEIWDDLKLVLPECDSKVGSRMIITSRNSNVGRYIGGESSLHALQPLESEKSFELFTKKIFNFDDNNSWANASPDLVNIGRNIVGRCGGIPLAIVVTAGMLRARERTEHAWNRVLESMGHKVQDGCAKVLALSYNDLPIASRPCFLYFGLYPEDHEIRAFDLINMWIAEKFIVVNSGNRREAEDLAEDVLNDLVSRNLIQLAKRTYNGRISSCRIHVLLHSLCVDLAK
For the molecule B2, the ratio to parent in assay [2] was 0.62.

B3: Tm-2^2 NB-ARC (D481V), Q71BG9 L246A; D481V (protein)
chain: VLLDRRRLFLHADETEIIGLDDDFNMLQAKLLNQDLHYGVVSIVGMPGLGKTTLAKKLYRLIRDQFECSGLVYVSQQPRASEILLDIAKQIGLTEQKMKENLEDNARSLLKIKRYVILLDDIWDVEIWDDLKLVLPECDSKVGSRMIITSRNSNVGRYIGGESSLHALQPLESEKSFELFTKKIFNFDDNNSWANASPDLVNIGRNIVGRCGGIPLAIVVTAGMLRARERTEHAWNRVLESMGHKVQDGCAKVLALSYNDLPIASRPCFLYFGLYPEDHEIRAFDLINMWIAEKFIVVNSGNRREAEDLAEDVLNDLVSRNLIQLAKRTYNGRISSCRIHVLLHSLCVDLAK
For B3, in assay [3], the ratio to parent worked out at 0.45.
